This is an account of results in the Human Domainome abundance scans (Beltran et al. 2025).

B1: Membrane-associated guanylate kinase, WW and PDZ domain-containing protein 2, residues 601 to 682; numbered along this chain, Q86UL8 (parent)
chain: AELMTLTIVKGAQGFGFTIADSPTGQRVKQILDIQGCPGLCEGDLIVEINQQNVQNLSHTEVVDILKDCPIGSETSLIIHRG

± gives the uncertainty stated by the source.

In the data set the parent is B1. As to the kind of experiment: abundance fitness (aPCA) (normalised: wild type 0, dead -1); higher = more abundant; growth selection in yeast, the domain comes from the species named. The conditions noted are these: Homo sapiens.
Consider A12P, for which the abundance fitness is -0.043 ± 0.064.

A12D: the abundance fitness was -0.02 ± 0.064.

For the variant A12H, the abundance fitness was -0.209 ± 0.075.

A12M: the abundance fitness was -0.034 ± 0.052.

Regarding A12S, the abundance fitness was -0.046 ± 0.039.

As for A12Q, the abundance fitness was -0.037 ± 0.048.

For the variant G25Q, the abundance fitness was -0.255 ± 0.058.

In the case of G25V, the abundance fitness is -0.514 ± 0.051.

Take G25K: the abundance fitness is -0.267 ± 0.089.

On to G25R, for which the abundance fitness is -0.356 ± 0.04.

T75G: the abundance fitness is -0.08 ± 0.063.

As for T75C, the abundance fitness was -0.331 ± 0.2.

Consider T75F, for which the abundance fitness was -0.02 ± 0.16.

T75Y: the abundance fitness was -0.151 ± 0.12.

As to T75V, the abundance fitness worked out at 0.013 ± 0.091.

Consider T75S, for which the abundance fitness is -0.331 ± 0.082.

For the variant G43R, the abundance fitness is -0.182 ± 0.079.

On to G43T, for which the abundance fitness was -0.121 ± 0.12.

With G43F, the abundance fitness was -0.275 ± 0.17.

Turning to G43S, the abundance fitness is -0.104 ± 0.087.

With K67T, the abundance fitness came to 0.093 ± 0.11.

Regarding K67A, the abundance fitness is -0.072 ± 0.083.

Take K67H: the abundance fitness was -0.23 ± 0.21.

Regarding K67E, the abundance fitness is -0.034 ± 0.17.

For G36N, the abundance fitness was 0.055 ± 0.21.

G36P: the abundance fitness is -0.057 ± 0.15.

Consider G36A, for which the abundance fitness was -0.241 ± 0.24.

G36Q: the abundance fitness was -0.054 ± 0.2.

As for E61F, the abundance fitness is -0.381 ± 0.39.

For E61M, the abundance fitness is 0.08 ± 0.28.

On to E61W, for which the abundance fitness is -0.374 ± 0.21.

In the case of S73W, the abundance fitness is -0.06 ± 0.091.

For S73A, the abundance fitness was 0.021 ± 0.065.

In the case of S73Q, the abundance fitness was -0.098 ± 0.11.

On to S73R, for which the abundance fitness was -0.132 ± 0.089.

In the case of S73I, the abundance fitness was -0.011 ± 0.18.

Regarding G39E, the abundance fitness was -0.255 ± 0.14.

For the variant G39R, the abundance fitness is -0.167 ± 0.16.

Take G39H: the abundance fitness stood at 0.069 ± 0.25.

For G39V, the abundance fitness was -0.392 ± 0.11.

In the case of G39L, the abundance fitness is -0.22 ± 0.14.

In the case of L40S, the abundance fitness is -0.616 ± 0.21.

In the case of T60R, the abundance fitness is -0.038 ± 0.065.

For the variant T60D, the abundance fitness was -0.136 ± 0.12.

Consider K29S, for which the abundance fitness was found to be 0.039 ± 0.2.

Consider K29V, for which the abundance fitness is -0.122 ± 0.086.

K29A: the abundance fitness is -0.095 ± 0.1.

Turning to K29R, the abundance fitness was -0.047 ± 0.062.

S22A: the abundance fitness turned out to be 0.075 ± 0.1.

S22L: the abundance fitness is -0.049 ± 0.085.

For the variant S22G, the abundance fitness came out at 0.03 ± 0.061.

Regarding S22Y, the abundance fitness is -0.04 ± 0.23.

Take S22R: the abundance fitness worked out at 0.03 ± 0.13.

Regarding S22P, the abundance fitness was -0.671 ± 0.19.

On to P70K, for which the abundance fitness is -0.056 ± 0.24.

Regarding P70T, the abundance fitness is -0.108 ± 0.12.

Turning to P70C, the abundance fitness is -0.315 ± 0.19.

For the variant P70E, the abundance fitness was 0.007 ± 0.082.

Take P70A: the abundance fitness is -0.227 ± 0.099.

Consider P70W, for which the abundance fitness was -0.087 ± 0.12.

In the case of P70N, the abundance fitness is -0.089 ± 0.23.

As to D21Y, the abundance fitness is -0.099 ± 0.15.

In the case of D21P, the abundance fitness was -0.048 ± 0.14.

As to D21N, the abundance fitness was -0.105 ± 0.45.

In the case of D21C, the abundance fitness is -0.14 ± 0.1.

For D21V, the abundance fitness is -0.064 ± 0.078.

In the case of V63R, the abundance fitness was -0.072 ± 0.068.

Take V63D: the abundance fitness came out at 0.145 ± 0.41.

V63W: the abundance fitness is -0.017 ± 0.11.

As to V63L, the abundance fitness was -0.278 ± 0.2.

For V63A, the abundance fitness amounted to 0.001 ± 0.067.

Turning to V63Q, the abundance fitness was -0.087 ± 0.23.

As for F15S, the abundance fitness is -0.143 ± 0.031.

Regarding F15Q, the abundance fitness is -0.062 ± 0.039.

On to F15P, for which the abundance fitness is -0.063 ± 0.041.

Consider F15V, for which the abundance fitness is -0.003 ± 0.033.

Take F15R: the abundance fitness was -0.266 ± 0.034.

As for I49F, the abundance fitness is -0.065 ± 0.24.

For I49P, the abundance fitness was -1.01 ± 0.36.

Turning to I49C, the abundance fitness was -0.094 ± 0.11.

As for Q30E, the abundance fitness was -0.188 ± 0.14.

As for Q30A, the abundance fitness was -0.052 ± 0.17.

As to Q30N, the abundance fitness is -0.302 ± 0.48.

For Q30Y, the abundance fitness was -0.064 ± 0.15.

Turning to I78R, the abundance fitness was 0.033 ± 0.071.

Take I78P: the abundance fitness is -1.13 ± 0.49.

Turning to I78E, the abundance fitness is -0.086 ± 0.17.

With I78H, the abundance fitness was -0.157 ± 0.2.

Consider I78S, for which the abundance fitness was 0.019 ± 0.098.

Consider A1D, for which the abundance fitness was -0.198 ± 0.13.

On to K10F, for which the abundance fitness is -0.372 ± 0.064.

Consider H80G, for which the abundance fitness was -0.006 ± 0.076.

For the variant H80W, the abundance fitness is -0.079 ± 0.16.

For the variant H80P, the abundance fitness is -0.395 ± 0.14.

As to Q55S, the abundance fitness was -0.172 ± 0.097.

Consider Q55M, for which the abundance fitness is -0.01 ± 0.16.

As to Q55K, the abundance fitness was -0.276 ± 0.18.

Take T18W: the abundance fitness is -0.075 ± 0.04.

As to T18C, the abundance fitness is -0.044 ± 0.049.

For T18K, the abundance fitness came out at 0.044 ± 0.06.

Take T18D: the abundance fitness is -0.011 ± 0.064.

N53H: the abundance fitness was -0.045 ± 0.036.

Turning to N53D, the abundance fitness was -0.025 ± 0.043.

Consider N53F, for which the abundance fitness is -0.095 ± 0.038.

In the case of N53E, the abundance fitness is -0.043 ± 0.047.

For N53L, the abundance fitness was -0.069 ± 0.03.

On to L32S, for which the abundance fitness worked out at 0.024 ± 0.09.

On to L32D, for which the abundance fitness amounted to 0.022 ± 0.16.

Regarding L32M, the abundance fitness turned out to be 0.035 ± 0.24.

With A20Q, the abundance fitness was 0.217 ± 0.28.

In the case of A20M, the abundance fitness was 0.228 ± 0.45.

Consider A20E, for which the abundance fitness was -0.147 ± 0.16.

With V62W, the abundance fitness is -1.03 ± 0.4.

V62M: the abundance fitness is -0.181 ± 0.12.

Take E48T: the abundance fitness was -0.226 ± 0.18.

Take E48Q: the abundance fitness is -0.098 ± 0.17.

In the case of E48Y, the abundance fitness was found to be 0.006 ± 0.26.

In the case of G16C, the abundance fitness is -0.002 ± 0.047.

Consider G16M, for which the abundance fitness is -0.007 ± 0.039.

On to G16R, for which the abundance fitness is -0.051 ± 0.028.

Consider G16K, for which the abundance fitness is -0.029 ± 0.035.

With T24Y, the abundance fitness was -0.021 ± 0.075.

For the variant T24F, the abundance fitness was -0.053 ± 0.087.

For the variant T24C, the abundance fitness was -0.03 ± 0.066.

T24R: the abundance fitness is 0.007 ± 0.038.

Turning to T24H, the abundance fitness was 0.02 ± 0.071.

For the variant T24L, the abundance fitness is -0.023 ± 0.041.

Consider T24N, for which the abundance fitness is -0.004 ± 0.099.

For T24E, the abundance fitness is 0.024 ± 0.046.

For the variant Q13G, the abundance fitness stood at 0 ± 0.036.

Turning to Q13C, the abundance fitness is -0.06 ± 0.052.

For the variant C69V, the abundance fitness is -0.03 ± 0.065.

In the case of C69E, the abundance fitness was -0.086 ± 0.094.

C69R: the abundance fitness is -0.08 ± 0.08.

Regarding C69K, the abundance fitness amounted to 0.108 ± 0.14.

Consider C69T, for which the abundance fitness was 0.085 ± 0.11.

Consider G14N, for which the abundance fitness stood at 0.025 ± 0.041.

As to G14T, the abundance fitness is -0.02 ± 0.037.

In the case of G14E, the abundance fitness is -0.016 ± 0.053.

In the case of G14Y, the abundance fitness was -0.071 ± 0.04.

For the variant G14H, the abundance fitness was -0.03 ± 0.041.

G72L: the abundance fitness is -0.003 ± 0.079.

Regarding G72S, the abundance fitness came out at 0.004 ± 0.083.

In the case of G72P, the abundance fitness turned out to be 0.022 ± 0.12.

Turning to G72E, the abundance fitness is -0.018 ± 0.097.

Consider C37W, for which the abundance fitness is -0.287 ± 0.18.

Consider C37F, for which the abundance fitness turned out to be 0.204 ± 0.49.

As to C37K, the abundance fitness is -0.208 ± 0.11.

Consider C37Q, for which the abundance fitness was -0.113 ± 0.16.

Turning to D33T, the abundance fitness was -0.02 ± 0.059.

As to D33V, the abundance fitness was -0.152 ± 0.052.

Take D33H: the abundance fitness is -0.088 ± 0.071.

In the case of D33W, the abundance fitness is -0.117 ± 0.066.

With D33I, the abundance fitness is -0.243 ± 0.11.

Turning to D33Y, the abundance fitness amounted to 0.049 ± 0.1.

As for D33G, the abundance fitness was -0.11 ± 0.04.

In the case of L6G, the abundance fitness was -0.315 ± 0.032.

For the variant L6S, the abundance fitness is -0.075 ± 0.042.

Regarding L6R, the abundance fitness is -0.123 ± 0.031.

For the variant I71M, the abundance fitness is -0.004 ± 0.099.

Turning to I71F, the abundance fitness was -0.004 ± 0.21.

As to I65A, the abundance fitness was -0.048 ± 0.037.

Consider I65K, for which the abundance fitness was -0.069 ± 0.057.

For the variant I65E, the abundance fitness is -0.146 ± 0.052.

As for I65R, the abundance fitness is -0.064 ± 0.034.

Turning to I65P, the abundance fitness was -1.32 ± 0.22.

As for I65Y, the abundance fitness was -0.047 ± 0.063.
